For four sequences, protein production results are on record in a protein production outcome set (Wang et al. 2014).

This data set in a line: label from the status in PepcDB records.
For the sequence “MEREEIIERFLKFFREYAEEGEEPLYMGKIKDLLTITPKRSIVINWMHLNSYDPELAEEVIENPEECILAAEDAIQIILKEDFLREDVPKIHARFHNLPKTLMVKEVGAEHINKLIQVEGVVTRVTEIKPFVSVAVFVCKDCGHEMVVPQKPYEGFVAVKKCEQCGSKNVQLDVEKSKFVNFQMFRIQDRPESLRGGQMPRFIDGILLDDIVDTAMPGDRVIVVGILRVIQEKREKVPTFKKVIEVNHIEPISKELEELEISPEDEQKIRELAKRKDIVSAIVDSIAPAIYGYKEVKKGIALALFGGVSRTLPDGTRLRGDIHVLLVGDPGVAKCVDYDTEVLLGDGRKRKIGEIVEEAIKKAEKEGKLGRVDDGFYAPINLELYALDVRTLKVRKVKADIAWKRTTPEKMLRIRTKRGREIRVTPTHPFFTLEEGRIKTKKAYELKVGEKIATPREEAPEAEIFWDEVVEIEEYKPNNSWVYDLQVPEHHNFIANGIFVHNSQLLRYVANLAPRAIYTSGKSSSAAGLCVAPDTLINTDNGRVEIGKFVEEWMKEVGEISEEGISYAPCFRKVETFKDGKIVESPIRRVWKLRAPKKLVRIKTENGRSIALTRETKLLTINDGELSWVEAGEVKVGTYVGTVKSEKDVIPGAGKTIRDVSKLYNMEMEVKDYLTREEVRKAIEKLEEIMNPMNIKIPGVQESYEELLRKLETTNDERVRNETLILLSDVSDAHELAKEKIEKIKEIVNSEVHWEKVTEVGEVDGVEYVYDLTVEGSHNFVANGFIVHNTAAVVRDEFTGGWVLEAGALVLADGGYALIDELDKMSDRDRSVIHEALEQQTISLSKAGITATLNARTTVIAAANPKHGRFNRMKRVSEQIDLPPTLLSRFDLIFVLMDEPDEKVDSEIARHILKVRRGESEVVTPKIPHELLRKYIAYARKNIHPVISEEAMEEIEKYYVKMRRSAKKSSGDEIKPIPITARQLEALIRLSEAHARMRLSPIVTREDAREAIKLMEYTLKQIAVDEAGQLDVTILEVGQSARKLSKVERILDIVEKLERTSEKGAKIDDILEEAAKFGIEKSEAREILEKLLEKGQIYMPENGYYKTV”, the protein production entry is recorded as “failed”.
As to “MERIAMNPLMQQAIQFANDHETAWDRSVRGNFGVHLDDPPPWNRLLGPVHDRGPVSGVVVVDGQTLASWGEPERADLTFSVAKLYLSILAGVAHDRGLLPDVDEPVGRRVPGIGFDAGRNARITWRHLLQQTSEWEGERFGVPDQADRYRAVAFGIPPDGRKGDARPLQEPGTYWEYNDVRINQLSYALLHLFRRPLPEVFREAVTRPLGASEDWQWVGYDNAWVDIDGVRMPSVPGGTHWGGGMSISARDQALIGRMLLDEGRAADGRQVLSPAWIQAMRTPCDIAPYYGYLIWLNHERKVFPSVPASSFFGIGAGSSFTWVEPERRMVVIVRWLDAAYADALFGRILAAVDAHRAGLEHHHHHH”, the protein production result is recorded as “failed”.
Under “MERIRWLYGFLACILIAILLAPLQIMAQGEFRTSDQPLVYYIPVEQEVERGLEAFLQRSLDSAVEEGADHIVLEINTPGGRVDAAGNMARALRETDIPITAYVIDQALSAGAYIALNADEIVMAPGSTMGSAAVIDSAGNAADEKAQSYWLAEMRNAAEYNDRDPKYALAMADRSIEIPELDISNEELLTLTASQALEVNYAEAIASNRAELLEHLQIDNAFEQEMEVSFAEKLARFVTNPLIIPILLSIGSLGLVLELYSPGFGVPGIMGISALLLFFFGHLIAGFAGYEAMILFIAGFLLILIEVFMPGFGLFGILGIAGMIGGMLLASFSTAWMLVSLGISAVVTTVVAIITFRYFGSRGPWKKMILTESTSSEKGYITNETRQELVGLIGQSLTPLRPSGSGLFGEERLDVVSEGGYIEQGRKIKVVSTSGSRIVVRETDE” stands “failed”; under “MERKKITFDSFIRGSICCALIVGLLILFKRLSGVLLPFFVAWLIAYMIYPLVKFFQYKLRFKSRIISIFCALFSITIVGISLFYLLVPPMLAEMGRMNDLLVTYLTNGAYSSGTVPPTLSEFIHKHIDLQALNRILSEENIMNTIKETVPKLWALVAESINILFSVFASFIILLYVVFILLDYESIAEGWLHLLPGKYRTFASNLVNDIQDGMNRYFRGQAFVAFCVGILFSIGFLIIDFPMAIALGLFIGALNMVPYLQIIGFLPTIVLAILKAADTGENFWVILAGALIVFIVVQAIQDGFLVPRIMGKITGLNPAIILLSLSIWGSLLGMLGMIIALPLTTLMLSYYQRFIINKEKIKYDRHEVTDNQSAEENTKK”, “failed”.
